{
  "source": "paper PMC5435865",
  "about": "“A biochemical framework for eIF4E-dependent mRNA export and nuclear recycling of the export machinery” (RNA, 2017)",
  "binders": {"B1": {"name": "synthetic peptide LRP10A (N-Ac-EGFPIRPHYFWPLLVGRRKEK-NH2) (peptide)", "peptide": "Ac-EGFPIRPHYFWPLLVGRRKEK-NH2", "notes": "human LRPPRC, residues 433-453 (helix 10A); source: synthetic peptide, bought: Biomatic Corporation"}},
  "biological_target": "T1, ^15N-labeled human eIF4E (human, UniProt P06730 1-217)",
  "T1 construct": "human eukaryotic translation initiation factor eIF4E, in pET-15b; Uniformly ^15N-labeled; also called cap-free eIF4E; source: overexpressed and purified as described in Volpon et al. (2016)",
  "T1 sequence (P06730 whole entry)": "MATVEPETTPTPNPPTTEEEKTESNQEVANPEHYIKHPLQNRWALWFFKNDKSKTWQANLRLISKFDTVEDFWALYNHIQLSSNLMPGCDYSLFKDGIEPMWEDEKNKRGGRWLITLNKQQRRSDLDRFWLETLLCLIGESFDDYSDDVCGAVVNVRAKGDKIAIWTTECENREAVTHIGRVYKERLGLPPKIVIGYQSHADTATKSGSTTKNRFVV",
  "assay": "NMR titration; ^1H–^15N HSQC of ~40 µM ^15N-labeled cap-free eIF4E, unlabeled LRP10A added to ratio 1:4; 20°C, 50 mM sodium phosphate pH 7.3, 100 mM NaCl, 1 mM DTT, 7% D2O",
  "conditions": "both partners purified",
  "data": [
    {"binder": "B1", "values": [
      {"measurement": "binding result", "result": "binds"}
    ]}
  ]
}
